± gives the uncertainty stated by the source.
Experiment: self-splicing fitness, log relative to wild type (ln ratio); higher = more splicing; Tetrahymena group I intron in knt gene, E. coli kanamycin selection, DiMSum; sequences stand for … in CUCUCU…GGAGGGAAAAGUUAUCAGGCAUGCACCUGGUAGCUAGUCUUUAAACCAAUAGAUUGCAUCGGUUUAAAAGGCAAGACCGUCAAAUUGCGGGAAAGGGGUCAACAGCCGUUCAGUACCAAGUCUCAGGGGAAACUUUGAGAUGGCCUUGCAAAGGGUAUGGUAAUAAGCUGACGGACAUGGUCCUAACCACGCAGCCAAGUCCUAAGUCAACAGAUCUUCUGUUGAUAUGGAUGCAGUUCACAGACUAAAUGUCGGUCGGGGAAGAUGUAUUCUUCUCAUAAGAUAUAGUCGGACCUCUCCUUAAUGGGAGCUAGCGGAUGAAGUGAUGCAACACUGGAGCCGCUGGGAACUAAUUUGUAUGCGAAAGUAUAUUGAUUAGUUUUGGAGUACUCGUGGUCG
Method in brief: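 Colonies from six replicate transformations of E. coli BL21(DE3) were pooled and amplicon-sequenced on an Illumina HiSeq 2500. The library placed an intron with all eight P1ex-region nucleotides randomised inside the knt kanamycin-resistance gene on pET-22b(+), and cells grew overnight at 37°C or 30°C on LB agar with or without 25 μg/mL kanamycin (plus 100 μg/mL carbenicillin, 50 μM IPTG, 0.2% rhamnose). Fitness is the DiMSum error-weighted combination of wild-type-normalised replicate fold changes, kanamycin versus none.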

Sequence	self-splicing fitness (ln) (30 °C)	self-splicing fitness (ln) (37 °C)
CAAAAGCAAUAUUACGAAUC	-4.86 ± 0.38	-2.71 ± 0.21
CAAAAGCAAUAUUACGACAC	-3.37 ± 0.19	-1.01 ± 0.15
CAAAAGCAAUAUUACGAGAU	-3.7 ± 0.2	-2.21 ± 0.16
CAAAAGCAAUAUUACGAGUU	-3.02 ± 0.15	-2.46 ± 0.16
CAAAAGCAAUAUUACGCAAC	-2.59 ± 0.16	-2.53 ± 0.27
CAAAAGCAAUAUUACGCAGC	-3.68 ± 0.16	-2.36 ± 0.16
CAAAAGCAAUAUUACGCAGG	-2.51 ± 0.1	-1.24 ± 0.087
CAAAAGCAAUAUUACGCAUC	-3.35 ± 0.11	-1.52 ± 0.12
CAAAAGCAAUAUUACGCCCG	-0.0339 ± 0.13	0.354 ± 0.15
CAAAAGCAAUAUUACGCGAA	-3.36 ± 0.23	-1.3 ± 0.17
CAAAAGCAAUAUUACGCGAG	-2.58 ± 0.098	-1.06 ± 0.078
CAAAAGCAAUAUUACGCGGG	-2.38 ± 0.11	-1.87 ± 0.13
CAAAAGCAAUAUUACGGACA	-2.21 ± 0.15	-1.64 ± 0.17
CAAAAGCAAUAUUACGGAGU	-3.64 ± 0.14	-2.56 ± 0.16
CAAAAGCAAUAUUACGGCAU	-1.85 ± 0.11	-1.4 ± 0.14
CAAAAGCAAUAUUACGGGUA	-2.22 ± 0.13	-2.12 ± 0.15
CAAAAGCAAUAUUACGUAAU	-3.57 ± 0.15	-3.04 ± 0.18
CAAAAGCAAUAUUACGUCCG	-0.119 ± 0.082	0.175 ± 0.1
CAAAAGCAAUAUUACGUCUG	-0.838 ± 0.042	-0.0271 ± 0.052
CAAAAGCAAUAUUACGUUUU	-3.57 ± 0.12	-2.79 ± 0.16
CAACAGCAAUAUUACGAACC	-2.27 ± 0.25	-1.62 ± 0.22
CAACAGCAAUAUUACGAAGG	-0.969 ± 0.059	-0.0092 ± 0.078
CAACAGCAAUAUUACGACAG	-0.131 ± 0.073	0.499 ± 0.09
CAACAGCAAUAUUACGACGC	-0.56 ± 0.065	-0.0606 ± 0.085
CAACAGCAAUAUUACGAGCA	-2.97 ± 0.15	-1.01 ± 0.11
CAACAGCAAUAUUACGCAGA	-3.45 ± 0.14	-1.35 ± 0.075

Sequence	self-splicing fitness (ln) (30 °C)	self-splicing fitness (ln) (37 °C)
CAACAGCAAUAUUACGCCAG	-1.4 ± 0.11	-0.809 ± 0.14
CAACAGCAAUAUUACGCGAG	-2.29 ± 0.089	-0.359 ± 0.066
CAACAGCAAUAUUACGCGCU	-3.18 ± 0.23	-1.97 ± 0.19
CAACAGCAAUAUUACGCUCG	-0.822 ± 0.072	-0.727 ± 0.1
CAACAGCAAUAUUACGCUGU	-2.11 ± 0.2	-2.65 ± 0.26
CAACAGCAAUAUUACGCUUU	-2.5 ± 0.17	-2.54 ± 0.2
CAACAGCAAUAUUACGGAUU	-2.92 ± 0.13	-1.94 ± 0.14
CAACAGCAAUAUUACGGCAG	-0.117 ± 0.069	-0.00847 ± 0.076
CAACAGCAAUAUUACGGGGG	-2.07 ± 0.13	-1.08 ± 0.1
CAACAGCAAUAUUACGGUCA	-1.16 ± 0.066	-0.339 ± 0.069
CAACAGCAAUAUUACGUAGA	-2.68 ± 0.081	-1.18 ± 0.081
CAACAGCAAUAUUACGUCUA	-1.06 ± 0.053	-0.786 ± 0.055
CAACAGCAAUAUUACGUGAC	-4.28 ± 0.22	-2.23 ± 0.15
CAACAGCAAUAUUACGUGAG	-0.531 ± 0.049	-0.233 ± 0.07
CAACAGCAAUAUUACGUUAA	-2.36 ± 0.11	-2.16 ± 0.12
CAACAGCAAUAUUACGUUAC	-3.99 ± 0.21	-2.44 ± 0.14
CAACAGCAAUAUUACGUUAU	-3.16 ± 0.13	-1.94 ± 0.13
CAACAGCAAUAUUACGUUGU	-4.21 ± 0.18	-3.06 ± 0.16
CAACAGCAAUAUUACGUUUC	-3.28 ± 0.14	-2.33 ± 0.16
CAAGAGCAAUAUUACGAAAG	-1.52 ± 0.12	-1.64 ± 0.16
CAAGAGCAAUAUUACGAACU	-3.41 ± 0.27	-2.11 ± 0.26
CAAGAGCAAUAUUACGACGC		-1.56 ± 0.32
CAAGAGCAAUAUUACGACUA	-3.01 ± 0.23	-2.47 ± 0.21
CAAGAGCAAUAUUACGAGAC	-2.43 ± 0.37	-1.93 ± 0.35
CAAGAGCAAUAUUACGCCAG	-1.92 ± 0.24	-2 ± 0.41
CAAGAGCAAUAUUACGCCUU	-3.52 ± 0.32	-2.57 ± 0.41

Sequence	self-splicing fitness (ln) (30 °C)	self-splicing fitness (ln) (37 °C)
CAAGAGCAAUAUUACGCGAU	-2.62 ± 0.22	-2.51 ± 0.49
CAAGAGCAAUAUUACGCUAU	-3.62 ± 0.38	-2.19 ± 0.27
CAAGAGCAAUAUUACGGGCA	-2.96 ± 0.24	-1.79 ± 0.23
CAAGAGCAAUAUUACGGGUU	-3.54 ± 0.18	-3.25 ± 0.23
CAAGAGCAAUAUUACGGUGU	-3.52 ± 0.15	-2.08 ± 0.17
CAAGAGCAAUAUUACGUAUG	-3.02 ± 0.13	-1.36 ± 0.15
CAAGAGCAAUAUUACGUCCC		-1.59 ± 0.28
CAAGAGCAAUAUUACGUCUA	-2.41 ± 0.13	-1.56 ± 0.11
CAAGAGCAAUAUUACGUCUC	-3.6 ± 0.17	-2.73 ± 0.18
CAAGAGCAAUAUUACGUCUG	-1.45 ± 0.15	-0.511 ± 0.16
CAAUAGCAAUAUUACGAGAU	-2.72 ± 0.12	-2.82 ± 0.17
CAAUAGCAAUAUUACGAGGU	-4.24 ± 0.28	-1.93 ± 0.21
CAAUAGCAAUAUUACGAUGG	-1.09 ± 0.074	-0.114 ± 0.096
CAAUAGCAAUAUUACGCACC	-3.66 ± 0.3	
CAAUAGCAAUAUUACGCCAG	-1.21 ± 0.12	-0.652 ± 0.15
CAAUAGCAAUAUUACGCCGA	-2.61 ± 0.26	-1.59 ± 0.17
CAAUAGCAAUAUUACGCGGA	-3.59 ± 0.35	-2.05 ± 0.16
CAAUAGCAAUAUUACGCGUG	-1.93 ± 0.092	-1.44 ± 0.095
CAAUAGCAAUAUUACGCUCU	-3.28 ± 0.24	-1.88 ± 0.17
CAAUAGCAAUAUUACGGAUA	-3.03 ± 0.48	-2.77 ± 0.35
CAAUAGCAAUAUUACGGCGG	0.429 ± 0.11	-0.0335 ± 0.14
CAAUAGCAAUAUUACGGCUA	-2.26 ± 0.22	-2.1 ± 0.19
CAAUAGCAAUAUUACGGCUU	-2.53 ± 0.13	-1.42 ± 0.13
CAAUAGCAAUAUUACGGUGA	-2.83 ± 0.23	-2.09 ± 0.21
CAAUAGCAAUAUUACGUAGG	-0.348 ± 0.092	-0.384 ± 0.14
